Non-standard residues stand in square brackets, D forms with d. No end group written: not given here. *: point of attachment. Palmitoyl = CCCCCCCCCCCCCCCC(=O)*; Decanoyl = CCCCCCCCCC(=O)*; Dap = NC[C@H](N)C(=O)O; Sar = CNCC(=O)O
Tests used:
[1] = molecular target: T1, human GHS-R1a receptor (growth hormone secretagogue receptor 1a) (human, UniProt Q92847 1-366); test: competitive displacement of 125I-ghrelin, membranes of HEK293T cells with transfected human GHS-R1a
T1 construct: whole, on cells; Functional assays: HEK-293T cells transiently transfected with human GHS-R1a; also called ghrelin receptor
Protocol: Competitive binding studies were performed according to the principles of Motulsky and Neubig (Motulsky & Neubig, 2002). Isolated plasma membranes from the HEK293T cells with transfected human GHS-R1a receptor (Multispan, Hayward, Calif., USA) were used. […] The binding reaction was stopped by the addition of ice-cold washing buffer (20 mM Tris pH 7.4, 10 mM MgCl₂, 2.5 mM EDTA, 0.015% Triton X-100) followed by rapid filtration over GF/C filters (Whatman, Clifton, N.J., USA) presoaked with 0.5% PEI in binding buffer using a Brandel cell harvester (Brandel Inc., Gaithersburg, Md., USA). Bound radioactivity was determined by gamma counting (Wizard 1470 Automatic Gamma Counter; PerkinElmer Life and Analytical Sciences, Waltham, Mass.).

[2] = molecular target: T1, human GHS-R1a receptor (growth hormone …); test: cell-based or functional assay

T1 sequence (Q92847 whole entry): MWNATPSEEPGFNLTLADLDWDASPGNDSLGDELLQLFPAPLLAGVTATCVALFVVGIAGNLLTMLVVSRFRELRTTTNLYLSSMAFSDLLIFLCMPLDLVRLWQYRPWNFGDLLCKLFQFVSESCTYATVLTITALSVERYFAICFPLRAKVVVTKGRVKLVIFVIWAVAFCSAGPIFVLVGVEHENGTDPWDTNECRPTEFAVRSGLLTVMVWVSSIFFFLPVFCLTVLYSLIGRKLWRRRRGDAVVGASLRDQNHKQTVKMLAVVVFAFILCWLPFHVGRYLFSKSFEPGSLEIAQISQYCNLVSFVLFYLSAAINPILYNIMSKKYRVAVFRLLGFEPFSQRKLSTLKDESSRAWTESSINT

% of ghrelin binding [1] [%] | Ki [1] [nM] | Ca^2+ - EC50 [nM] (intracellular calcium mobilization, Fluo-4AM) [2] | IP1 - EC50 [nM] (inositol phosphate accumulation, IP-One HTRF) [2] | Binder
6 | 20.8 | – | – | XSXXLSPEHQKAQQRKESKKPPAKLQPR (sarcosine (Sar) at position 1; diaminopropionic acid N-octanoyl (Dpr-N-oct) at position 3; cyclohexylalanine (Cha) at position 4; Lys 24 N-palmitoyl (K(N-palm)), Synthetic ghrelin analog) [ghrelin analog no. 8, (Sar)S(Dpr-N-oct)(Cha)LSPEHQKAQQRKESKKPPAK(N-palm)LQPR]
24 | 4.71 | – | – | XSXXLSPEHQKAQQRKESKKPPAKLQPR (sarcosine (Sar) at position 1; diaminopropionic acid N-octanoyl (Dpr-N-oct) at position 3; tertbutylalanine (tBu) at position 4, Synthetic ghrelin analog) [ghrelin analog no. 10, (Sar)S(Dpr-N-oct)(tBu)LSPEHQKAQQRKESKKPPAKLQPR]
47 | 2.45 | – | – | XSXXLSPEHQKAQQRKESKKPPAKLQPR (not fully specified; sarcosine (Sar) at position 1; diaminopropionic acid N-octanoyl (Dpr-N-oct) at position 3; dichlorophenylalanine (PheCl2) at position 4, Synthetic ghrelin analog) [ghrelin analog no. 13, (Sar)S(Dpr-N-oct)(PheCl2)LSPEHQKAQQRKESKKPPAKLQPR]
19 | 5.99 | – | – | [Sar]S[Dap](Decanoyl)FLSPEHQKAQQRK(Palmitoyl)ES [ghrelin analog no. 15, (Sar)S(Dpr-N-dec)FLSPEHQKAQQRK(N-palm)ES]
57 | 2.01 | 10.9 | 9.75 | XSXXLSPEHQKAQQRKESKKPPAKLQPR (sarcosine (Sar) at position 1; diaminopropionic acid N-myristoyl (Dpr-N-myr) at position 3; 1-naphtylalanine (1-Nal) at position 4, Synthetic ghrelin analog) [ghrelin analog no. 4, (Sar)S(Dpr-N-myr)(1-Nal)LSPEHQKAQQRKESKKPPAKLQPR]
18 | 6.41 | 11.4 | 3.08 | XSXXLSPEHQKAQQRKESKKPPAKLQPR (sarcosine (Sar) at position 1; diaminopropionic acid N-myristoyl (Dpr-N-myr) at position 3; cyclohexylalanine (Cha) at position 4, Synthetic ghrelin analog) [ghrelin analog no. 6, (Sar)S(Dpr-N-myr)(Cha)LSPEHQKAQQRKESKKPPAKLQPR]
7 | 16.8 | – | – | XSXXLSPEHQKAQQRKESKKPPAKLQPR (not fully specified; sarcosine (Sar) at position 1; diaminopropionic acid N-myristoyl (Dpr-N-myr) at position 3; dichlorophenylalanine (PheCl2) at position 4, Synthetic ghrelin analog; also called analog 14) [ghrelin analog no. 14, (Sar)S(Dpr-N-myr)(PheCl2)LSPEHQKAQQRKESKKPPAKLQPR]
30 | 3.71 | – | – | [Sar]S[Dap](Decanoyl)FLSPEHQKAQQRKES [ghrelin analog no. 17, (Sar)S(Dpr-N-dec)FLSPEHQKAQQRKES]
54 | 2.1 | 36.6 | 7.1 | XSXFLSPEHQKAQQRKESKKPPAKLQPR (sarcosine (Sar) at position 1; diaminopropionic acid N-myristoyl (Dpr-N-myr) at position 3, Synthetic ghrelin analog; also called analog 2) [ghrelin analog no. 2, (Sar)S(Dpr-N-myr)FLSPEHQKAQQRKESKKPPAKLQPR]
139 | 0.83 | – | – | XSXFLSPEHQKAQQRKESKKPPAKLQPR (sarcosine (Sar) at position 1; diaminopropionic acid N-10-undecynoyl (Dpr-N-10-undecyn) at position 3, Synthetic ghrelin analog) [ghrelin analog no. 11, (Sar)S(Dpr-N-10-undecyn)FLSPEHQKAQQRKESKKPPAKLQPR]
183 | 0.63 | 9.66 | 12.6 | XSXFLSPEHQKAQQRKESKKPPAKLQPR (sarcosine (Sar) at position 1; diaminopropionic acid N-decanoyl (Dpr-N-dec) at position 3, Synthetic ghrelin analog) [ghrelin analog no. 1, (Sar)S(Dpr-N-dec)FLSPEHQKAQQRKESKKPPAKLQPR]
110 | 1.04 | 10.6 | 3.28 | XSXXLSPEHQKAQQRKESKKPPAKLQPR (sarcosine (Sar) at position 1; diaminopropionic acid N-decanoyl (Dpr-N-dec) at position 3; cyclohexylalanine (Cha) at position 4, Synthetic ghrelin analog) [ghrelin analog no. 5, (Sar)S(Dpr-N-dec)(Cha)LSPEHQKAQQRKESKKPPAKLQPR]
